Test results as given in publication PMC10542350, “Structural basis of nucleosome deacetylation and DNA linker tightening by Rpd3S histone deacetylase complex” (Cell Research, 2023).

Molecular target: the molecule itself
Assay: cryo-EM structure; purified apo Rpd3S complex; 3D map of 3.5 Å

B1: Rco1 (natural protein, Saccharomyces cerevisiae, UniProt Q04779 1-684, looked up)
chain: MDTSKKDTTRSPSHSNSSSPSSSSLSSSSSKEKKRPKRLSSQNVNYDLKRRKIITSEGIERSFKNEHSNLAVEDNIPEEEPKELLEKDSKGNIIKLNEPSTISEDSKVSVTGLPLNKGPSEKIKRESLWNYRKNLGGQSNNSEMTLVPSKRFTQVPKNFQDLNRNDLKTFLTENMTEESNIRSTIGWNGDIINRTRDREPESDRDNKKLSNIRTKIILSTNATYDSKSKLFGQNSIKSTSNASEKIFRDKNNSTIDFENEDFCSACNQSGSFLCCDTCPKSFHFLCLDPPIDPNNLPKGDWHCNECKFKIFINNSMATLKKIESNFIKQNNNVKIFAKLLFNIDSHNPKQFQLPNYIKETFPAVKTGSRGQYSDENDKIPLTDRQLFNTSYGQSITKLDSYNPDTHIDSNSGKFLICYKCNQTRLGSWSHPENSRLIMTCDYCQTPWHLDCVPRASFKNLGSKWKCPLHSPTKVYKKIHHCQEDNSVNYKVWKKQRLINKKNQLYYEPLQKIGYQNNGNIQIIPTTSHTDYDFNQDFKITQIDENSIKYDFFDKIYKSKMVQKRKLFQFQESLIDKLVSNGSQNGNSEDNMVKDIASLIYFQVSNNDKSSNNKSASKSNNLRKLWDLKELTNVVVPNELDSIQFNDFSSDEIKHLLYLKKIIESKPKEELLKFLNIENPENQSE
notes: Rco1, Saccharomyces cerevisiae; two copies (Rco1A, Rco1B) stand in the Rpd3S complex; also called Rco1A; Rco1B; source: High Five insect cells (baculovirus), co-expressed with the other Rpd3S subunits; purified as part of the complex (streptavidin column, Resource Q, gel filtration); not shown: double StrepII, C-terminal, kept
B1: binds.
